Assay results reported in patent publication US20230218743A1.
Like-named read-outs stand apart in the source and are kept apart here.

How the values were obtained:
[1] = biological target: RBD-SD1 (SARS-CoV-2), P0DTC2; test: epitope analysis, FIG. 3B; exponent as printed; details: remark: other sources report otherwise
[2] = biological target: RBD-SD1 (SARS-CoV-2), P0DTC2; details: remark: other sources report otherwise

B1: N-612-004 (antibody, V domains shown)
VH: EVQLVESGGGLVQPGGSLRLSCAASGFTFSSYYMHWVRQAPGKGLEWVSAISGSGGYTYYADSVKGRFTISRDNSKNTLYLQMNSLRAEDTAVYYCARDRDHAYDWGFDVWGQGTLVTVSS
VL: DIQMTQSPSSLSASVGDRVTITCQASQDISNYLNWYQQKPGKAPKLLIYDASNLETGVPSRFSGSGSGTDFTFTISSLQPEDIATYYCQQWADWPLTFGQGTKVEIK
[1]
  koff: 0.00034 s⁻¹
[2]
  Kd: 2.95 nM
  koff: 0.000937 s⁻¹
  kon: 317000 M⁻¹ s⁻¹
